Experiment [1] addresses full-length murine NKG2D on cells (murine) (UniProt O54709). In words: cell-based or functional assay.
The target in experiment [2] is human NKG2D on CHO transfectant cells (human) (UniProt P26718). In words: flow cytometry on human NKG2D-CHO transfectant cells. In general terms: Flow cytometry measures light scatter and fluorescence of single cells or particles in a stream.
For experiment [3], the target named is full-length murine NKG2D on cells (murine) (UniProt O54709). In words: flow cytometry on stable mNKG2D transfectant HEK293 cells.
The target in experiment [4] is soluble form of murine NKG2D representing residues 88-232, N'-FLAG tagged (murine) (UniProt O54709). In words: ELISA, mNKG2D immobilized on plate, goat anti-mouse F(ab')2-HRP detection. A general note: ELISA stands for enzyme-linked immunosorbent assay.
The target in experiment [5] is full-length murine NKG2D on cells (murine) (UniProt O54709). As to the kind of experiment: flow cytometry on NK cells from mouse splenocytes, biotinylated antibody and streptavidin.
Experiment [6] addresses murine FcγRIII on cells (murine) (UniProt P08508). In words: cell-based or functional assay.
UniProt P08508, sequence (P08508 31-261): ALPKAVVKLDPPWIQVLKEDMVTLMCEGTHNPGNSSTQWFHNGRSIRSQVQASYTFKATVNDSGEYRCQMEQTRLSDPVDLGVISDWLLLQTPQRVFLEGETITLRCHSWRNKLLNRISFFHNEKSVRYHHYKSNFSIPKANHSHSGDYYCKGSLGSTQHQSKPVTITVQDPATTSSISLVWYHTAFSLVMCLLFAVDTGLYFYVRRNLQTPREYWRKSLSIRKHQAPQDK
The target of experiment [7] is full-length murine NKG2D on cells (murine) (UniProt O54709). As to the kind of experiment: flow cytometry on stable mNKG2D transfectant HEK293 cells, isotype control.

By EC50 is commonly meant the midpoint of the concentration-response curve. The low end stands for a more potent agent, the high end for a less potent agent.

UniProt P26718, sequence (P26718 whole entry): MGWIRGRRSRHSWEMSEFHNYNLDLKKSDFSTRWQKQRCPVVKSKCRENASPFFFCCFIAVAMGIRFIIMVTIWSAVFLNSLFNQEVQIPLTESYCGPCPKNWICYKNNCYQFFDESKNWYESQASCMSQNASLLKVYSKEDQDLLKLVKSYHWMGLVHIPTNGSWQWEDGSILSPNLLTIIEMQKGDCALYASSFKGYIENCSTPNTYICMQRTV

Turning to “Anti-HER2-MicB fusion antibody (from UniProt Q29980 16-297)”, the killing of BT474 cells by splenic NK cells of murine FcγRIII knockout mice, E:T ratio 20:1 in experiment [1] came to 10%. For the same substance, the MFI was 61.7 MFI in experiment [2] and 11 MFI in experiment [3]. In addition, the EC50 in experiment [4] came out at 0.3 nM.
As to Anti-HER2-H60 fusion antibody, in experiment [1], the killing of BT474 cells by splenic NK cells of murine FcγRIII knockout mice, E:T ratio 20:1 was found to be 10%. Further, the figures for the MFI in experiment [3] and in experiment [5] were 100 MFI and 48.9 MFI, respectively. The EC50 in experiment [4] turned out to be 0.2 nM.
As to “Anti-HER2*-MicB fusion antibody (D265A + N297A) (from UniProt Q29980 16-297)”, in experiment [1], the killing of BT474 cells by murine DX5+ NK cells (lactate dehydrogenase release), E:T ratio of 50:1, 6.7 nM antibody stood at 15%. For the same substance, the MFI in experiment [2] amounted to 61.7 MFI; in experiment [3], 11 MFI. Moreover, in experiment [4], the concentration for a half-maximal effect (EC50) stood at 0.3 nM.
As to Anti-HER2 (4D5 mIgG2a) (antibody), the killing of BT474 cells by murine DX5+ NK cells (lactate dehydrogenase release), E:T ratio of 50:1, 6.7 nM antibody in experiment [6] came to 15%.
On to mouse IgG2a control antibody, for which the MFI in experiment [7] was determined as 4 MFI.

For the origin of these results see patent publication US20090226466A1.
